From US20250171536A1 (CSL INNOVATION, published 2025)

What was measured:
[1] = target: T1, Murine CD117, soluble (MuCD117 1-527) (mouse, UniProt P05532 25-527); assay: SPR, captured antibody, soluble CD117 analyte
T1 construct: Residues as printed
T1 sequence: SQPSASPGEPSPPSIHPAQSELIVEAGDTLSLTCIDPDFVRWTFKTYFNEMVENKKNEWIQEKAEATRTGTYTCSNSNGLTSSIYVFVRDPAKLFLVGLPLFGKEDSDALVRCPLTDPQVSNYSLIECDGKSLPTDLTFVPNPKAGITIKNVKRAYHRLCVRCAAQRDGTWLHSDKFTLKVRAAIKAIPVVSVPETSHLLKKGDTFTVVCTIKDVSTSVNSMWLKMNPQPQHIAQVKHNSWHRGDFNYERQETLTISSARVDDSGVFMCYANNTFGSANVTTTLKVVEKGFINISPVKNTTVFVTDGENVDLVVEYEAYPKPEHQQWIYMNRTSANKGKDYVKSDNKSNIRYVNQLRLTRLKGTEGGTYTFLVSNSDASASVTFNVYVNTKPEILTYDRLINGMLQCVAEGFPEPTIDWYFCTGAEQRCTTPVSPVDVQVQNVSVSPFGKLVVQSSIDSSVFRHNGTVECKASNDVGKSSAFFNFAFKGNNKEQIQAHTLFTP
Method: (§1) Biacore 4000 was used for all binding analyses. Experiments were performed at pH 7.3, 37° C. and under flow rate of 30 μL/min. Human anti-CD117 antibodies were surface captured using either polyclonal goat anti-human IgG or IgA antibodies directly immobilised onto the carboxymethyl dextran surface of CM5 sensorchips to approximately 13,000 RU using standard NHS/EDC chemistry at pH 5. The immobilised antibody surface was pre-conditioned with ten injections of human polyclonal IgG (Privigen 60s, 10 μg/mL) each followed by a regeneration cycle with 100 mM H3PO4.
(§2) A total of 18 anti-CD117 antibodies (2 μg/mL) were tested as captured ligands against four soluble mammalian CD117 receptor variants: the N-terminal domain of human CD117 (HuCD1₁₇₁₋₃₀₈), full length human CD117 (HuCD1₁₇₁₋₅₂₄), cyno CD117 (cynoCD117₁₋₅₂₀), and murine CD117 (MuCD117₁₋₅₂₇).
(§3) CD117 proteins were prepared in two-fold dilutions ranging from 0.8 to 200 nM. Anti-CD117 antibodies huAb249, huAb85, huCK6 and huhzSR1 were used as positive controls. BM4 was prepared in an IgG and IgA2 format and used as negative control. Binding affinities were calculated from sensorgrams double-referenced using reference surface and blank buffer injection data gathered within each experiment.

[2] = target: N-terminal domain of human CD117, soluble (HuCD117 1-308) (human, UniProt P10721 26-308); assay: SPR Biacore 4000, captured antibody, soluble CD117 analyte, 1:1 fit;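 also: antibodies captured on CM5 chips via goat anti-human IgG or IgA, CD117 analyte in two-fold series 0.8–200 nM, run at pH 7.3 and 37 °C, double-referenced sensorgrams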
N-terminal domain of human CD117, soluble (HuCD117 1-308), sequence (P10721 26-308): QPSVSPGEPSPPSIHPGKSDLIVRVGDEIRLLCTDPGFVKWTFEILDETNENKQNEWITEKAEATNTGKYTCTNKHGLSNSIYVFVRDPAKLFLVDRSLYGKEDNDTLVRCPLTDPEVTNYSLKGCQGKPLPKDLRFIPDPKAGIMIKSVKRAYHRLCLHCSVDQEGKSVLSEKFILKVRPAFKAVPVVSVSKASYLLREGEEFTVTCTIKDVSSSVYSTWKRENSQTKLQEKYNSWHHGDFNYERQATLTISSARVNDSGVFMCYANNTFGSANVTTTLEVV
Method: as §1, §2, §3

[3] = target: T2, Full length human CD117, soluble (HuCD117 1-524) (human, UniProt P10721 26-524); assay: as above
T2 construct: also called full-length protein
T2 sequence (P10721 26-524): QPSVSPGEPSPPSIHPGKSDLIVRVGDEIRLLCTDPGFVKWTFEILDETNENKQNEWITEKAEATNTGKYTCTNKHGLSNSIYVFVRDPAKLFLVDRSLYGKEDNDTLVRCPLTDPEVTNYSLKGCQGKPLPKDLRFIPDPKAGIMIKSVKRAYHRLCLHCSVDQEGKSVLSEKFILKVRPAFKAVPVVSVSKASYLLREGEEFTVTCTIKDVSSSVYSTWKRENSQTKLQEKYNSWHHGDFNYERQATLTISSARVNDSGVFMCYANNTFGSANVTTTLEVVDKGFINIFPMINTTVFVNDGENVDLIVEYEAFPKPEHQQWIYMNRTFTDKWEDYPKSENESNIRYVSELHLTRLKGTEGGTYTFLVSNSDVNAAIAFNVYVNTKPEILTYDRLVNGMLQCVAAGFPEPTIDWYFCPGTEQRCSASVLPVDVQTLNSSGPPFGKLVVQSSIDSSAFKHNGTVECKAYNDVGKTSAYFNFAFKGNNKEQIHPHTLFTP
Method: as §1, §2, §3

[4] = target: T3, Cyno CD117, soluble (cynoCD117 1-520) (cynomolgus monkey, UniProt P10721 26-520 (human entry)); assay: as above
T3 construct: Residues as printed
T3 chain: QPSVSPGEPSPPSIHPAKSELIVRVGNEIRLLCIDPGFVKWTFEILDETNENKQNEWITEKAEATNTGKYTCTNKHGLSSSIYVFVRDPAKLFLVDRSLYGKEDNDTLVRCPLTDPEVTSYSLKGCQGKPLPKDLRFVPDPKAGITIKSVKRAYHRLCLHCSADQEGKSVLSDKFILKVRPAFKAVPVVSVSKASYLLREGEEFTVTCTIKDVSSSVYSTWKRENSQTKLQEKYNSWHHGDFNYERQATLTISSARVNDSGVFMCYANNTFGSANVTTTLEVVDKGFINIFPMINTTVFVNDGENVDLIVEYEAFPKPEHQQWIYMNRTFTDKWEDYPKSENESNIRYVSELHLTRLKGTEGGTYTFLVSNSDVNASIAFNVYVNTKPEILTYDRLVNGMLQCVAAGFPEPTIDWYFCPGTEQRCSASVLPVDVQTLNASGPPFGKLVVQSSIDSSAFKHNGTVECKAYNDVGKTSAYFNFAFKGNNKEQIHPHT
Method: as §1, §2, §3

[5] = target: T4, Human CD117 (c-kit), cell-surface expressed (human, UniProt P10721 26-976); assay: flow cytometry on TF-1 cells, IgG1 format, anti-human IgG Fab-AF488, total binding
T4 construct: also called hCD117; SCFR
Method: (§4) After a one hour incubation on ice, cells were washed once prior to fixation.
(§5) Mean fluorescence intensities (MFI) were obtained using Flowjo v10 and analysed using GraphPad Prism. Total binding curves for TF-1 cells and specific binding curves for HEK293FS expressing CD117 (generated by subtracting non-specific binding to parental cells) were plotted. EC50 values for each anti-CD117-IgG1 antibody tested was determined using a non-linear regression model.

[6] = target: T4, Human CD117 (c-kit), cell-surface …; assay: flow cytometry on HEK293FS cells expressing human CD117, IgG1 format, signal of parental cells subtracted
Method: as §4, §5

[7] = target: T5, Cynomolgus monkey CD117, expressed on HEK293FS cells (cynomolgus monkey, UniProt P10721 26-976 (human entry)); assay: flow cytometry on HEK293FS cells expressing cynomolgus CD117, IgG1 format, signal of parental cells subtracted
T5 construct: The construct transfected is not further described; also called cyno CD117
T5 chain: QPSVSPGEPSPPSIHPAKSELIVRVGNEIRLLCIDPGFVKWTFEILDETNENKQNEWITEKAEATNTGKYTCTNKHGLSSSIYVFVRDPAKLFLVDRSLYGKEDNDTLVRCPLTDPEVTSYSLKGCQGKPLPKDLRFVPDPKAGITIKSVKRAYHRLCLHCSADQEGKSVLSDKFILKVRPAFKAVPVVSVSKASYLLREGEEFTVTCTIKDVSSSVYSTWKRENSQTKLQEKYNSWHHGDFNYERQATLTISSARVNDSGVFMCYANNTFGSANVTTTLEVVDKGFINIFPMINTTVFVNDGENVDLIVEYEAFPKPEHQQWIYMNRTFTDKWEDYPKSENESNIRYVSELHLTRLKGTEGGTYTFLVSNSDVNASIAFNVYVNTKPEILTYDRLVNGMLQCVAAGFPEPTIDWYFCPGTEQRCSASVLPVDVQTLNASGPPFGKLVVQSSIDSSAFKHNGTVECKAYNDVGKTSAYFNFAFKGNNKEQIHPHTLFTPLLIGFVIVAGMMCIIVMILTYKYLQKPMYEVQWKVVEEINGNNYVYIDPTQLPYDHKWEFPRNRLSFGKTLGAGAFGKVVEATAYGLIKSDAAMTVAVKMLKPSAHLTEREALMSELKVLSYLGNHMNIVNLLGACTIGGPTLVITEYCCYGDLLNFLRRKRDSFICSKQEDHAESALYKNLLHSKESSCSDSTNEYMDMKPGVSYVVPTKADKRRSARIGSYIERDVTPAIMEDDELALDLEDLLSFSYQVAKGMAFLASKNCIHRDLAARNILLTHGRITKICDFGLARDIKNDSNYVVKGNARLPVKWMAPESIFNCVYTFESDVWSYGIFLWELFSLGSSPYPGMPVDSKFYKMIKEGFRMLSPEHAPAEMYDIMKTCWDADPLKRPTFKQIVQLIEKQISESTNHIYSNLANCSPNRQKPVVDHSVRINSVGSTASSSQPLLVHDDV
Method: as §4, §5

[8] = target: T5, Cynomolgus monkey CD117, expressed on …; assay: flow cytometry on HEK293FS cells expressing cynomolgus CD117, IgG1 format, signal of parental cells subtracted [F]
Method: as §4, §5

[9] = target: T1, Murine CD117, soluble (MuCD117 1-527); assay: SPR Biacore 4000, captured antibody, soluble CD117 analyte
Method: as §1, §2, §3

[10] = target: T6, Mouse CD117, expressed on HEK293FS cells (mouse, UniProt P05532 25-979); assay: flow cytometry on HEK293FS cells expressing mouse CD117, IgG1 format, signal of parental cells subtracted
T6 construct: The construct transfected is not further described; also called murine CD117
Method: as §4, §5

[11] = target: T2, Full length human CD117, soluble …; assay: SPR Biacore 4000, captured antibody, soluble CD117 analyte
Method: as §1, §2, §3

[12] = target: T3, Cyno CD117, soluble (cynoCD117 1-520); assay: as above
Method: as §1, §2, §3

B1: hu3C2 IgG1 (hu3C2-hLG1) (antibody)
heavy: not shown
light: SYELTQDPAVSVALGQTVRITCQGDSLRDYYANWFQQKPGQAPLLVIFYDSDRPSGIPERFSGSNSGNTATLTISRVEAGDEADYYCQAWDSSSDHWVFGGGTKLTVLGQPKAAPSVTLFPPSSEELQANKATLVCLISDFYPGAVTVAWKADGSPVKAGVETTKPSKQSNNKYAASSYLSLTPEQWKSHRSYSCQVTHEGSTVEKTVAPTECS
notes: Human IgG1, lambda
In the case of B1, the binding result [1] is reported as “no binding (tested: 200 nM (highest CD117 concentration))”, the Kd [2] is reported as 4.14 nM and the Kd [3] is reported as 14.4 nM. The Kd [4] was 33.7 nM, the “EC50 (read off the curve)” value [5] was roughly 0.2 nM and the “EC50 (read off the curve)” value [6] was roughly 0.4 nM. The “EC50 (read off the curve)” value [7] was roughly 0.3 nM.

B2: hu3B3 IgG1 (hu3B3-hLG1) (antibody)
heavy: not shown
light: SYELTQPPSVSVSPGQTASITCSGDKVGAKYVFWYQQKPGQSPVLVVYQDNKRPSGIPERFSGSNSGNTATLTISGTQAMDEADYYCQAWDSSTALYVFGTGTKVTVLGQPKANPTVTLFPPSSEELQANKATLVCLISDFYPGAVTVAWKADGSPVKAGVETTKPSKQSNNKYAASSYLSLTPEQWKSHRSYSCQVTHEGSTVEKTVAPTECS
notes: Human IgG1, lambda
In the case of B2, the binding result [1] is reported as “no binding (tested: 200 nM (highest CD117 concentration))”, the Kd [2] is reported as 1.07 nM and the Kd [3] is reported as 4.2 nM. For the same binder, the Kd [4] was 5.7 nM, the “EC50 (read off the curve)” value [5] was roughly 0.04 nM and the binding result [8] was “binds”.

B3: hu3B2 IgG1 (hu3B2-hLG1) (antibody)
heavy: not shown
light: SYELTQPPSVSVSPGQTATITCSGDKLGETYVHWYQHQSGQSPILVVYQDFKRPSGIPERFSGSNSGNTATLTISGTQAMDEADYYCQAWDSSTAVFGGGTKLTVLGQPKAAPSVTLFPPSSEELQANKATLVCLISDFYPGAVTVAWKADGSPVKAGVETTKPSKQSNNKYAASSYLSLTPEQWKSHRSYSCQVTHEGSTVEKTVAPTECS
notes: Human IgG1, lambda
B3 showed a Kd [9] greater than 1000 nM, a Kd [3] of 54.6 nM and a Kd [4] of 58.7 nM. The “EC50 (read off the curve)” value [10] was roughly 0.3 nM.

B4: hu3B2 IgA2 (hu3B2-hLhA2 (P221R)) (antibody)
heavy: QVQLQESGPGLVKPSETLSLTCTVSGYSISSGYYWGWIRQPPGKGLEWIGSIYHSGSTYYNPSLKSRVTISVDTSKNQFSLKLSSVTAADTAVYYCARVGVRYFDWLLYGAFDIWGQGTMVTVSSASPTSPKVFPLSLDSTPQDGNVVVACLVQGFFPQEPLSVTWSESGQNVTARNFPPSQDASGDLYTTSSQLTLPATQCPDGKSVTCHVKHYTNSSQDVTVPCRVPPPPPCCHPRLSLHRPALEDLLLGSEANLTCTLTGLRDASGATFTWTPSSGKSAVQGPPERDLCGCYSVSSVLPGCAQPWNHGETFTCTAAHPELKTPLTANITKSGNTFRPEVHLLPPPSEELALNELVTLTCLARGFSPKDVLVRWLQGSQELPREKYLTWASRQEPSQGTTTFAVTSILRVAAEDWKKGDTFSCMVGHEALPLAFTQKTIDRLAGKPTHVNVSVVMAEVDGTCY
light: SYELTQPPSVSVSPGQTATITCSGDKLGETYVHWYQHQSGQSPILVVYQDFKRPSGIPERFSGSNSGNTATLTISGTQAMDEADYYCQAWDSSTAVFGGGTKLTVLGQPKAAPSVTLFPPSSEELQANKATLVCLISDFYPGAVTVAWKADGSPVKAGVETTKPSKQSNNKYAASSYLSLTPEQWKSHRSYSCQVTHEGSTVEKTVAPTECS
B4 showed a Kd [9] greater than 1000 nM, a Kd [3] of 35.9 nM and a Kd [4] of 39.9 nM.

B5: hu4A2 IgG1 (hu4A2-hKG1) (antibody)
heavy: not shown
light: EIVLTQSPGTLSLSPGKRATLSCRASQSVSNSYLAWYQQKPGQPPKLLIYWASTRESGVPDRFSGSGSGTDFTLTISSLQAEDVAVYYCQQYYSTPLTFGGGTKVEIKRTVAAPSVFIFPPSDEQLKSGTASVVCLLNNFYPREAKVQWKVDNALQSGNSQESVTEQDSKDSTYSLSSTLTLSKADYEKHKVYACEVTHQGLSSPVTKSFNRGEC
notes: Human IgG1, kappa; also called hu4Aa
B5 gave a Kd [2] of 14.4 nM, a Kd [3] of 32.4 nM and a Kd [4] of 34.6 nM. The “EC50 (read off the curve)” value [5] was roughly 0.2 nM, the “EC50 (read off the curve)” value [6] was roughly 0.5 nM and the “EC50 (read off the curve)” value [7] was roughly 0.3 nM.

B6: hu4A2 IgA2 (hu4A2-hKhA2 (P221R)) (antibody)
heavy: EVQLLESGGGLVQPGGSLRLSCAASGFTFSDYGMSWVRQAPGKGLEWVSAIGYGGGGKYYADSVKGRFTISRDNSKNTLYLQMNSLRAEDTAVYYCAKDTWWLAGLFDYWGQGTLVTVSSASPTSPKVFPLSLDSTPQDGNVVVACLVQGFFPQEPLSVTWSESGQNVTARNFPPSQDASGDLYTTSSQLTLPATQCPDGKSVTCHVKHYTNSSQDVTVPCRVPPPPPCCHPRLSLHRPALEDLLLGSEANLTCTLTGLRDASGATFTWTPSSGKSAVQGPPERDLCGCYSVSSVLPGCAQPWNHGETFTCTAAHPELKTPLTANITKSGNTFRPEVHLLPPPSEELALNELVTLTCLARGFSPKDVLVRWLQGSQELPREKYLTWASRQEPSQGTTTFAVTSILRVAAEDWKKGDTFSCMVGHEALPLAFTQKTIDRLAGKPTHVNVSVVMAEVDGTCY
light: EIVLTQSPGTLSLSPGKRATLSCRASQSVSNSYLAWYQQKPGQPPKLLIYWASTRESGVPDRFSGSGSGTDFTLTISSLQAEDVAVYYCQQYYSTPLTFGGGTKVEIKRTVAAPSVFIFPPSDEQLKSGTASVVCLLNNFYPREAKVQWKVDNALQSGNSQESVTEQDSKDSTYSLSSTLTLSKADYEKHKVYACEVTHQGLSSPVTKSFNRGEC
With B6 the “fold gain in affinity (IgA2 backbone vs IgG1 or IgG4)” value [11] was roughly 2 fold, the “fold gain in affinity (IgA2 backbone vs IgG1 or IgG4)” value [12] was roughly 10 fold and the Kd [2] was 8.61 nM. It also gave a Kd [3] of 18.6 nM and a Kd [4] of 3 nM.
